Source: patent US8133683B2, “Methods for detecting biomolecules in a sample” (Taipei Medical University, priority 2009, dated 2012)
“Also recorded” adds a separate entry of the source. Primed or numbered codes have the meaning given here. Ends that are not written are not given here. * marks the point of attachment. FITC = O=C1OC2(c3ccc(O)cc3Oc3cc(O)ccc32)c2ccc(NC(=S)*)cc21; FITC′ = fluorescein isothiocyanate label

Key:
[1] = biological target: T1, human serum albumin (HSA) (Homo sapiens, UniProt P02768); assay: CPBA, detecting HSA; type: binding; conditions: FIG. 4
T1 construct: purchased Sigma-Aldrich A3782
Method: (§1) The stock solutions of HSA, ovalbumin, and BGG were prepared as 125 μg/ml in HBS buffer (10 mM Hepes-pH 7.0, and 0.15 M NaCl). Aliquots of 30 μl of each protein placed in microplate wells were 2-fold serial diluted in HBS buffer. After an aliquot of 30 μl of freshly prepared reagent-A (6 μM FITC-RD18/FITC-KY15, 100 mM Hepes-pH 7.5, and 2 mM EDTA) was added to each well, the microplate was incubated at 37° C. for 30 minutes. An aliquot of 60 μl of reagent B (0.5 M Hepes-pH 8.0, and 2 mM EDTA) was then added to each well to adjust pH to 8.0 for optimal fluorescence detection. To remove all the free fluorescent peptides, MD-Charcoal suspension (200 μl per well) was added and incubated at room temperature for 5 minutes. […] Background level of fluorescence intensities was measured by replacing protein samples with HBS buffer. The binding capacities of antigens for the fluorescent peptide probes were expressed as net fluorescence intensity per well. All experiments were performed at least in triplicates for each datum point and the data were presented as means±SD.

anti-KY15 antibody = assay: Charcoal-sorbent peptide binding assay (CPBA), detecting anti-KY15 antibody; conditions: FIG. 2B, anti-KY15 rabbit antiserum
Method: (§2) Rabbit sera (30 μl/well) in microplate were 2-fold serially diluted in PBS buffer (137 mM NaCl, 2.7 mM KCl, 10 mM Na2HPO4, 2 mM KH2PO4, pH 7.4). After an aliquot of 30 μl of freshly prepared reagent-A (6 μM FITC-KY15, 100 mM Hepes-pH 7.5, and 2 mM EDTA) was added to each well, the microplate was incubated at 37° C. for 50 minutes. An aliquot of 60 μl of reagent B (0.5 M Hepes-pH 8.0, and 2 mM EDTA) was then added to each well to adjust pH to 8.0 for optimal fluorescence detection. To remove all the free fluorescent peptides, MD-Charcoal suspension (200 μl per well) was added, and the mixture was incubated at room temperature for 5 minutes. […] The binding capacity of antiserum for the fluorescent peptide probe was expressed as fluorescence intensity per well. All experiments were performed in triplicates for each datum point and the data were presented as means±SD.

[2] = CPBA, control non-immune rabbit serum; type: binding; conditions: FIG. 2B
Method: as §2

[3] = Capturing capacity and rate of MD-Charcoal for FITC-labeled molecules; conditions: for Remaining fluorescence intensities: 3 μM in 60 μl, Ex485/Em535, Gain 35, means±SD (n=3)
Method: Aliquots of FITC-labeled molecules (3 μM in 60 μl) mixed with equal volume of reagent B (2 mM EDTA, 0.5 M Hepes-pH 8.0) were treated with MD-Charcoal (200 μl/well) at room temperature for 1, 5, or 10 minutes.
Data were analyzed by one-way ANOVA and Tukey-HSD multiple range test, and presented as means±SD (n=3). Different successive superscript represents significant difference at p<0.05. The background value from empty well served as blank.

anti-FF15 antiserum = assay: CPBA, control serum anti-FF15 antiserum; type: binding, rabbit; conditions: FIG. 2B
Method: as §2

[4] = tested on: bovine gamma globulin (BGG); assay: CPBA, control protein bovine gamma globulin; type: binding; conditions: FIG. 4
Method: as §1

ovalbumin = biological target: T2, ovalbumin (Gallus gallus, UniProt P01012); assay: CPBA, control protein ovalbumin; type: binding, chicken; conditions: FIG. 4
T2 construct: ovalbumin (#A5503; from chicken egg white; 99% in purity); purchased Sigma-Aldrich A5503; host or cells: chicken egg white
T2 sequence (P01012 1-386): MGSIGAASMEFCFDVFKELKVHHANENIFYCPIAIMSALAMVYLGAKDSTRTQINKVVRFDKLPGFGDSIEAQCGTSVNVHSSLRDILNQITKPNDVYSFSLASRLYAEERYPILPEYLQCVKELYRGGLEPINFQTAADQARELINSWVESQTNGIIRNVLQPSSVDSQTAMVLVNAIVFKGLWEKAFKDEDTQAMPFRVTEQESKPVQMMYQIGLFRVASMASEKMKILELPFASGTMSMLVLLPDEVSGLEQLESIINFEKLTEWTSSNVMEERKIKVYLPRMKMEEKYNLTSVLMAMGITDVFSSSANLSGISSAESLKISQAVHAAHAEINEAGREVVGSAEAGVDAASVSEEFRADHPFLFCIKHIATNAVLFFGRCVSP
Method: as §1

| Binding of peptide probe with HSA [1] | Specificity for albumin compared to control proteins, ovalbumin and bovine gamma globulin [1] | Interaction of ovalbumin with peptide probe (ovalbumin) | Substance | Binding of peptide probe with anti-KY15 antibody (anti-KY15 antibody) | Affinity of non-immune rabbit serum for the peptide probe [2] | Remaining fluorescence intensities (% of No Treatment) ([3]; MD-Charcoal treatment 1 min) | Remaining fluorescence intensities ([3]; MD-Charcoal treatment 1 min) | Remaining fluorescence intensities (% of No Treatment) ([3]; MD-Charcoal treatment 5 min) | Remaining fluorescence intensities ([3]; MD-Charcoal treatment 5 min) | Remaining fluorescence intensities (% of No Treatment) ([3]; MD-Charcoal treatment 10 min) | Remaining fluorescence intensities ([3]; MD-Charcoal treatment 10 min) | Affinity of anti-FF15 antiserum for the peptide probe (anti-FF15 antiserum) | Interaction of bovine gamma globulin with peptide probe [4] |
| --- | --- | --- | --- | --- | --- | --- | --- | --- | --- | --- | --- | --- | --- |
| did not have affinity |  |  | FITC-KY15: N-terminal FITC-labeled peptide KY15, amino acid sequence KSVGRDEREDITYTY; peptide probe for anti-KY15 antibody ({FITC}-KSVGRDEREDITYTY) | specific binding; also recorded: can be detected | did not show affinity | (0.6%) | 1,320 ± 410^2b | (0.5%) | 1,037 ± 33^2b | (0.4%) | 943 ± 29^2b | did not show affinity |  |
| linearly dose-dependent | highly specific | did not interact | FITC-RD18: N-terminal FITC-labeled peptide RD18, amino acid sequence RLIEDICLPRWGCLWEDD; albumin-specific peptide probe ({FITC′}-RLIEDICLPRWGCLWEDD; cysteine pairing not given here) |  |  |  |  |  |  |  |  |  | did not interact |
